Consider one substance from paper PMC5973781.

The target in the assay is mouse ANKRD16^3xArg (recombinant) (mouse) (UniProt A2AS55). The assay is described as follows: SwitchSENSE.

As for “mouse AlaRS^A734E (recombinant, SwitchSENSE and biochemical assays) (from UniProt Q8BGQ7 1-968) (enzyme)”, the fold change in affinity against wild type ANKRD16 is 2 fold.
